From patent KR20210063070A (dated 2021)
Changes are numbered by the printed parent chain. Names and notes keep the numbering of the source.

Experiments:
[1] = biological target: T1, recombinant mouse B7-H3 protein with C-terminal His tag (Sino Biological, 50973-M08H) (mouse, UniProt Q8VE98 29-244); test: ELISA, IgG on coated recombinant mouse B7-H3-His
T1 construct: Bought; also called 마우스 B7-H3
T1 sequence (looked up): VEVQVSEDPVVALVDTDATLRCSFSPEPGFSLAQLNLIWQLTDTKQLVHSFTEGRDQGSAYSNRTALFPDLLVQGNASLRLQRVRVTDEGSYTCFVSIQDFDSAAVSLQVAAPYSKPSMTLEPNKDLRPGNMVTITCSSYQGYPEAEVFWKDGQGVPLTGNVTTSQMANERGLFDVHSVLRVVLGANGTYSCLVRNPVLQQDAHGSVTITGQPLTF

[2] = biological target: T2, human B7-H3 expressed on the surface of human cancer cell lines (human, UniProt Q5ZPR3 29-534); test: flow cytometry on human cancer cell lines that express B7-H3
T2 construct: whole, on cells; also called 세포 표면 발현 B7-H3; CD276
T2 sequence (looked up): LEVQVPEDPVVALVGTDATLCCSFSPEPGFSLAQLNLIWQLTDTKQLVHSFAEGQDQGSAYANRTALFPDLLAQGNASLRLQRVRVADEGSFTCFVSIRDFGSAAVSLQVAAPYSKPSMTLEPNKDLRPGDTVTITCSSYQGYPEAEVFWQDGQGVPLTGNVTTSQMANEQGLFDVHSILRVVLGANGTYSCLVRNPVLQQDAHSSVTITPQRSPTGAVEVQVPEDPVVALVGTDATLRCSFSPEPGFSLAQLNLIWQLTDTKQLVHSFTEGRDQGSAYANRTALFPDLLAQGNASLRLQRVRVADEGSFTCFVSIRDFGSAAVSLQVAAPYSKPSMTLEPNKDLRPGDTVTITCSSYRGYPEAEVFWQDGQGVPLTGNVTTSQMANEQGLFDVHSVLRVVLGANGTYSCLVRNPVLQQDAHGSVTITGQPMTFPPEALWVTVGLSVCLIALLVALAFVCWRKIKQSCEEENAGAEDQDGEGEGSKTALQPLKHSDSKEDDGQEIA

[3] = biological target: T3, mouse B7-H3 expressed on the surface of mouse cancer cell lines (CT26, B16F10, TC-1) (mouse, UniProt Q8VE98 29-316); test: flow cytometry on CT26, B16F10 and TC-1 cells, 10 ㎍/㎖
T3 construct: whole, on cells; also called 세포 표면 발현 마우스 B7-H3
T3 sequence (looked up): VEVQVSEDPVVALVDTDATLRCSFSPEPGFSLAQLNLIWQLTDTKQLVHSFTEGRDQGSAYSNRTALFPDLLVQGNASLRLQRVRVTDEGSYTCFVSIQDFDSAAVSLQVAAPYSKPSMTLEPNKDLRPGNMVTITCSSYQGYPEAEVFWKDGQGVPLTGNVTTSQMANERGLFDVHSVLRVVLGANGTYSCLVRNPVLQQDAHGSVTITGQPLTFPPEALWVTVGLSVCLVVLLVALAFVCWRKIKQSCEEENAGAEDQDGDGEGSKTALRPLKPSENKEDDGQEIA

Measured: binding result

B1: anti-B7-H3 antibody B5 (full IgG form) (antibody, V domains shown)
VH: EVQLLESGGGLVQPGGSLRLSCAASGFTFSDYAMSWVRQAPGKGLEWVSSISSGSGSIYYADSVKGRFTISRDNSKNTLYLQMNSLRAEDTAVYYCAKNLIPLDYWGQGTLVTVSS
VL: QSVLTQPPSASGTPGQRVTISCSGSSSNIGSNAVSWYQQLPGTAPKLLIYYNSHRPSGVPDRFSGSKSGTSASLAISGLRSEDEADYYCGSWDASLNAYVFGGGTKLTVLG
binds: all assays above

B2: anti-B7-H3 antibody D8G (full IgG form) (antibody, V domains shown)
VH: EVQLLESGGGLVQPGGSLRLSCAASGFTFSSYSMSWVRQAPGKGLEWVSGIYSDGSNTYYADSVKGRFTISRDNSKNTLYLQMNSLRAEDTAVYYCAKMLHRFDYWGQGTLVTVSS
VL: B1 VL with A33S, S35T, Y51A, N52D, H54Q, S91T, A94S
binds: all assays above

B3: anti-B7-H3 antibody F6V (full IgG form) (antibody, V domains shown)
VH: EVQLLESGGGLVQPGGSLRLSCAASGFTFSDYAMSWVRQAPGKGLEWVSGISPGGSNTYYADSVKGRFTISRDNSKNTLYLQMNSLRAEDTAVYYCAKDAWIARLLLFDYWGQGTLVTVSS
VL: B1 VL with S35T, S53N, H54K, S91T, A94D, N97S, A98G
binds: all assays above

B4: anti-B7-H3 antibody C4I (full IgG form) (antibody, V domains shown)
VH: B1 VH with D31G, A33Y, S50L, S53P, G54S, N99G, I101T, P102K, L103F
VL: B1 VL with S23T, A33D, Y51A, A94D, N97S, A98G
binds: all assays above

B5: anti-B7-H3 antibody 10F11 (full IgG form) (antibody, V domains shown)
VH: B2 VH with S33G, D54G, N57S, T58K, M99N, L100R, H101L
VL: B1 VL with S23T, A33S, S35T, Y51S, N52D, S91T
binds: all assays above
